# B1: recombinant His-tagged NMAD-1 (enzyme, C. elegans, UniProt Q8MNT9 1-291, looked up)
# chain: MGSAEQACGCKGARFCALCETTERVKKLRVVEDKHVNYKVFIYDHIRQIAIPTTNLNSQSSLEDIIDESTSCQSVSTDGSIEIDGLTLIHNFLSESEESKILNMIDTVEWAQSQSGRRKQDYGPKVNFKHKKVKTDTFVGMPEYADMLLNKMSEYDVKKLGNYQPFEMCNLEYEEVKKSAIEMHQDDMWIWGNRLISINLINGSVMTLSNDNKSFLCYVHMPHRSLLCMADECRYDWKHGVLAHHIRGRRIALTMREAAKDFAEGGELYEKYGAELIRLGNIRVPLSKTSV
# notes: NMAD-1 (F09F7.7) of C. elegans; also called HIS:NMAD-1; source: E. coli BL21, purified (Ni-NTA)
# Biological target: T1, GST-tagged TOP-2 (C. elegans, UniProt Q23670 1-1520)
# T1 construct: TOP-2, topoisomerase II of C. elegans; also called topoisomerase II; source: E. coli BL21, purified (glutathione sepharose 4B)
# Assay: pull-down; 3 μg GST-tagged protein on glutathione sepharose 4B beads with 1 μg HIS-tagged NMAD-1 in TAP wash buffer (50 mM Tris-HCl pH 8.0, 100 mM KCl), 1 h at 4 °C; blot probed with HIS antibody
# Settings: both partners purified
# T1 sequence (Q23670 whole entry): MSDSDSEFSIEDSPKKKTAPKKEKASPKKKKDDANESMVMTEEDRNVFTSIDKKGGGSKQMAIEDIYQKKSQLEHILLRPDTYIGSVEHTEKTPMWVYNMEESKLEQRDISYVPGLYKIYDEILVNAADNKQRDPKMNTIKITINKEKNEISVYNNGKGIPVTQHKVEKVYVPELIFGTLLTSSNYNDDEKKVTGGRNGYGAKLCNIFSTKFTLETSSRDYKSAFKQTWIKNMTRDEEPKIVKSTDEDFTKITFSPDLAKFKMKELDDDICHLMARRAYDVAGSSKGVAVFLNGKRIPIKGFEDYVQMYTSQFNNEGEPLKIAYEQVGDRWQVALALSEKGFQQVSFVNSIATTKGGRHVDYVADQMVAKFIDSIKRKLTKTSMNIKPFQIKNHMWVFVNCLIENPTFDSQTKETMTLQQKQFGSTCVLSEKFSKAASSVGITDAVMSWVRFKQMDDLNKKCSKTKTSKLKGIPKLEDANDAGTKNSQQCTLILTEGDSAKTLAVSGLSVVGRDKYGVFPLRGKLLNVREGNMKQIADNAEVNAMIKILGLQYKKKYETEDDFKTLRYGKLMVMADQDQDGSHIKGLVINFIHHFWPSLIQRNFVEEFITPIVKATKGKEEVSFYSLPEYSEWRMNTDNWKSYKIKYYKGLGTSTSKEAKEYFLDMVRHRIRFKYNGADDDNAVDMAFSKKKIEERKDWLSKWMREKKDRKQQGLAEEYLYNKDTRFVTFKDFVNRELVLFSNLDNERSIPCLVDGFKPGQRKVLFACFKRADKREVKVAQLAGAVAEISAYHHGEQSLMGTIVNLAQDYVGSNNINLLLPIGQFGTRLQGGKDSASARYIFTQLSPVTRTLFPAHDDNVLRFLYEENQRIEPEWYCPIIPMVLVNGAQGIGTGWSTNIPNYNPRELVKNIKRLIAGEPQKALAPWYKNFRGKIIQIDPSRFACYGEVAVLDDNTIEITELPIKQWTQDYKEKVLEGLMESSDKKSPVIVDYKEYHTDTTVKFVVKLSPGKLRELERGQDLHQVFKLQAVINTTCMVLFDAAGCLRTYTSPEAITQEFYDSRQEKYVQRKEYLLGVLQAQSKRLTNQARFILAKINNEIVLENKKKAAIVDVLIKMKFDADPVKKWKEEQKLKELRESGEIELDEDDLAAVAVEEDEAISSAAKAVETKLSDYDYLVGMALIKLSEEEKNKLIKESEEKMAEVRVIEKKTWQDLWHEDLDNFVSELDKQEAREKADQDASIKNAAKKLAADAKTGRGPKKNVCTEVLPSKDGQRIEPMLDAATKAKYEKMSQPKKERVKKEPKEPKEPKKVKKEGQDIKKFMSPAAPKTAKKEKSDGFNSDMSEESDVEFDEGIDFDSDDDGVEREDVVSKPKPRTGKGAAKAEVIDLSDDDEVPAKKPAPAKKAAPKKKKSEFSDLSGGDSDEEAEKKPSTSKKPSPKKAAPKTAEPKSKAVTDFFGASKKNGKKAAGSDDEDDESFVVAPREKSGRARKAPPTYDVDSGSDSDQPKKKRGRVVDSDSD
binder,measurement,value
B1,binding result,binds
